How the values were obtained:
[1] = SSF of maltodextrins with added trehalose, 24 h (Example 1); parameters: species or system Yeast (Deltaferm® AL-18); conditions: SSF 24 h, maltodextrin + 20 g/L trehalose, enzyme 937.5 kU per ton
Experimental: (§1) Quantification of ethanol yield Ethanol was quantified via HPLC. Samples were taken at the end of the SSF or during SSF at set time points. Samples were centrifuged for 1 min at 17,000 xg and sterile filtered (0.2 μm). The samples were frozen at −80° C. prior to measurements. Ethanol was determined with an Aminex 87C column (Bio-Rad Laboratories, Inc., US) on a Shimadzu HPLC system.
(§2) For simultaneous saccharification and fermentation (abbreviated SSF), the oligo-1,6-glucosidases—either Agl1 or Gth—were used as crude Bacillus extract. Glucidex® Maltodextrin 12 (Roquette, FR) was dissolved in SSF-medium (5 g/L yeast extract, 5 g/L peptone, 1 g/L K2HIPO4, 0.5 g/L Mg2SO4 in 50 mM citrate buffer, pH 4.8) at 300 g/L. Panose, isomaltose, isomaltotriose, maltose, maltotriose, or trehalose was added at 20 g/L. As a positive control, 20 g/L glucose was added instead of the respective sugar. The SSF medium containing starch hydrolysate (maltodextrins) and sugars was sterile filtered (0.2 μm). Yeast (Deltaferm® AL-18, WeissBioTech GmbH, Ascheberg, Germany) was grown in YINaC medium (50 g/L dextrose, 5 g/L yeast extract, 5 g/L peptone, 1 g/L K2HPO4, 0.5 g/L Mg2SO4*7H2O, 2 g/L NH4Cl in 50 mM sodium citrate, pH 4.8) for 2 days at 37° C. and harvested by centrifugation for 15 min at 5100 rpm and 8° C. Pelleted yeast was added to the SSF-medium at a final concentration of 6 g/L. Glucoamylase (Deltazym® GA L-E5, WeissBioTech GmbH, Ascheberg, Germany) was added at 40 g per ton of dry starch equivalent. The enzyme product Agl1 or Gth was added up to a final concentration of 187.5 kU per ton of dry starch equivalent. For the SSF with trehalose, Agl1 or Gth was added at 937.5 kU per ton of dry starch equivalent. As a negative control, an SSF as described above was run without oligo-1,6-glucosidase/enzyme product. The SSF was performed at 30° C. without stirring or shaking for 24 h.

[2] = SSF of maltodextrins with added maltose, 24 h (Example 1); parameters: species or system Yeast (Deltaferm® AL-18); conditions: SSF 24 h, maltodextrin + 20 g/L maltose, enzyme 187.5 kU per ton
Experimental: as §1, §2

[3] = Industry-relevant SSF of maltodextrins with added panose, 72 h (Example 2); parameters: species or system Yeast (Deltaferm® AL-18); conditions: SSF 72 h, maltodextrin + 20 g/L panose, glucoamylase 400 g/t, enzyme 187.5 kU per ton
Experimental: as §1
For the SSF, the enzyme product was used as crude Bacillus extract. Glucidex® Maltodextrin 12 was dissolved in SSF medium (5 g/L yeast extract, 5 g/L peptone, 1 g/L K2HIPO4, 0.5 g/L Mg2SO4 in 50 mM citrate buffer, pH 4.8) at 300 g/L. Panose was added at 20 g/L. As a positive control, 20 g/L glucose was added. The SSF medium containing starch and sugars was sterile filtered (0.2 μm). Yeast (Deltaferm® AL-18, WeissBioTech GmbH, Ascheberg, Germany) was grown in YINaC medium (50 g/L dextrose, 5 g/L yeast extract, 5 g/L peptone, 1 g/L K2HPO4, 0.5 g/L Mg2SO4*7H2O, 2 g/L NH4Cl in 50 mM sodium citrate, pH 4.8) for 2 days at 37° C. and harvested by centrifugation for 15 min at 5100 rpm and 8° C. Pelleted yeast was added to the SSF at a final concentration of 6 g/L. Glucoamylase (Deltazym® GA L-E5, WeissBioTech GmbH, Ascheberg, Germany) was added at 400 g per ton of dry starch equivalent. The enzyme product Agl1 or Gth was added to a final concentration of 187.5 kU per ton of dry starch equivalent. As a negative control, no oligo-1,6-glucosidase/enzyme product was added. The SSF was performed at 30° C. without stirring or shaking for 72 h.

[4] = SSF of commercial liquefied starch with added alpha-amylase, panose content (Example 4); parameters: species or system Yeast (Deltaferm® AL-18); conditions: for reduction in panose compared to control / panose detected: after 60 h SSF; for panose detected: liquefied starch with glucoamylase and alpha-amylase, enzyme 187.5 kU per ton; for panose after 72 h: after 72 h SSF
Experimental: Residual sugars were quantified via HPLC. Samples were taken at the end of the SSF or during SSF at set time points. Samples were centrifuged for 1 min at 17 000 xg and sterile filtered (0.2 μm). The samples were frozen at −80° C. prior to measurements. Residual sugars were determined with a Zorbax NH2 column (Agilent Technologies, Inc., US) on an Agilent 1200 HPLC system.
For SSF, the enzyme product was used as crude Bacillus extract. Acidified liquefied starch from a commercial plant, containing no detectable amounts of panose, isomaltose, isomaltotriose or trehalose, was brought to pH 4.8. SSF medium components (5 g/L yeast extract, 5 g/L peptone, 1 g/L K2HPO4, 0.5 g/L Mg2SO4 in 50 mM citrate buffer, pH 4.8) were added to liquefied starch (300 g/L). The SSF medium containing starch was sterile filtered (0.2 μm). Yeast (Deltaferm® AL-18, WeissBioTech GmbH, Ascheberg, Germany) was grown in YINaC medium (50 g/L dextrose, 5 g/L yeast extract, 5 g/L peptone, 1 g/L K2HIPO4, 0.5 g/L Mg2SO4*7H2O, 2 g/L NH4Cl in 50 mM sodium citrate, pH 4.8) for 2 days at 37° C. and harvested by centrifugation for 15 min at 5100 rpm and 8° C. Pelleted yeast was added to the SSF at a final concentration of 6 g/L. Glucoamylase (Deltazym® GA L-E10, WeissBioTech GmbH, Ascheberg, Germany) was added at 200 g per ton of dry starch equivalent. Alpha-amylase (Fuelzyme®, BASF) was added at 200 g per ton of dry starch equivalent to simulate non-complete removal of alpha-amylase in industrial processes, which is often the cause for increased non-fermentable sugars. The enzyme product Agl1 or Gth was added to a final concentration of 187.5 kU per ton of dry starch equivalent. As control, no oligo-1,6-glucosidase/enzyme product was added. The SSF was performed at 30° C. without stirring or shaking for 72 h.

[5] = Process stability (SSF medium without starch, pH 4.8, 30° C., 72 h); assay type: physicochemical; conditions: after 72 h at 30° C., pH 4.8, SSF medium without starch
Experimental: Process stability was determined by incubating the enzymes under process conditions (SSF medium without starch, pH 4.8, 30° C.) for 72 h and measuring the remaining activity.

[6] = Lab-scale SSF run with 32% dextrins supplemented with panose; parameters: species or system alcohol yeasts (Deltaferm® AL-18); conditions: 30° C., pH 4.8, 72 h, glucoamylase 415 g/t, yeast 6 g/L

Row | Molecule | ethanol concentration increase by % compared to the negative control [1] | ethanol concentration increase compared to the negative control [1] | ethanol concentration increase by % compared to the negative control [2] | ethanol concentration increase compared to the negative control [2] | ethanol concentration increase by % compared to the negative control [3] | ethanol concentration increase compared to the negative control [3] | reduction in panose compared to control [4] | panose detected [4] | panose after 72 h [4] | process stability (remaining activity) [5] | increase of ethanol yield [6]
1 | Gth: oligo-1,6-glucosidase of Parageobacillus thermoglucosidasius, amino acid sequence SEQ ID NO:2, expressed in Bacillus subtilis (protein, listed as Parageobacillus thermoglucosidasius, WP_042386239.1 alpha-glucosidase) MERVWWKEAVVYQIYPRSFYDSNGDGIGDIRGIIAKLDYLKELGVDVVWLSPVYKSPNDDNGYDISDYRDIMDEFGTMADWKTMLEEMHKRGIKLVMDLVVNHTSDEHPWFIESRKSKDNPYRDYYIWRPGKNGKEPNNWESVFSGSAWEYDEMTGEYYLHLFSKKQPDLNWENPKVRREVYEMMKFWLDKGVDGFRMDVINMISKVPELPDGEPQSGKKYASGSRYYMNGPRVHEFLQEMNREVLSKYDIMTVGETPGVTPKEGILYTDPSRRELNMVFQFEHMDLDSGPGGKWDIRPWSLADLKKTMTKWQKELEGKGWNSLYLNNHDQPRAVSRFGDDGKYRVESAKMLATFLHMMQGTPYIYQGEEIGMTNVRFPSIEDYRDIETLNMYKERVEEYGEDPQEVMEKIYYKGRDNARTPMQWDDSENAGFTAGTPWIPVNPNYKEINVKAALEDPNSVFHYYKKLIQLRKQHDIIVYGTYDLILEDDPYIYAYTRTLGNEQLIVITNFSEKTPVFRLPDHIIYKTKELLISNYDVDEAEELKEIRLRPWEARVYKIRLP | 31% | 0.26 percentage points (v/v) | 2.8% | 0.06 percentage points (v/v) | 15% | 1.77 percentage points (v/v) | 57% | 2.3 g/L | completely hydrolysed | 80% | 2%
2 | Agl1: oligo-1,6-glucosidase of Bifidobacterium breve UCC2003, amino acid sequence SEQ ID NO:1, expressed in Bacillus subtilis (protein, Bifidobacterium breve UCC2003; ACM89182.1 alpha-glucosidase 1) MMTTFNRAIIPDAIRTNGATPNPWWSNAVVYQIYPRSFQDTNGDGFGDLKGITSRLDYLADLGVDVLWLSPVYKSPQDDNGYDISDYQDIDPLFGTLDDMDELLAEAHKRGLKVVMDLVVNHTSDEHAWFEASKNKDDEHADWYWWRPARPGTTPGEPGSEPNQWGSYFGGSAWEYCPERGEYYLHQFSKKQPDLNWENPAVRRAVYDMMNWWLDRGIDGFRMDVITLISKRTDANGRLPGEYGSELDDLPVGEEGYSNPNPFCADGPRQDEFLKEMRREVFAGREGFLTVGEAPGITPVRNEHITNPANGELDMLFLFDHVDFDCDGVKWKPLPLDLPGFKRIMAGYQTAVENVGWASLFTGNHDQPRVVSRWGDDSSEESRVRSAKALGLMLHMHRGTPYVYQGEELGMTNAHFTSLDQYRDLESLNAYRQRVEEAKVQSPESMLAGIAARGRDNSRTPMQWDGSAYAGFTAPDAATEPWISVNPNHAEINAAGEFDDPDSVYAFYKKLIALRHNSSIVAAGEWQLIDADDAHVYAFTRTLGNERLLVVVNLSGRTVDLPRESTELIAGGVTEPDIILSTYDAPHTVVSLANRELDPWEAAAVQL | 226% | 1.86 percentage points (v/v) | 1.5% | 0.03 percentage points (v/v) | 8% | 1.16 percentage points (v/v) | 50% | 2.7 g/L | completely hydrolysed | 80% | 2%

— patent US20230002798A1, “PROCESS FOR THE PREPARATION OF A FERMENTABLE SUGAR COMPOSITION AND THE FERMENTATION THEREOF” (WeissBioTech GmbH, priority 2019, published 2023)
